According to patent publication US7063950:

Tests used:
[1] = target: human neuronal calcium channel α1E-3α2bβ1-3 (human); test: cell-based or functional assay
[2] = target: human neuronal calcium channel subunits α1B-1α2b (human)
[3] = target: human neuronal calcium channel subunits α1B-1β1-2 (human); test: saturation binding of 125I-ω-CgTx GVIA to transiently transfected HEK293 cells
[4] = target: human neuronal calcium channel α1B-1α2bβ1-2 (human); test: as above
[5] = target: human neuronal calcium channel subunits α1B-1β1-3 (human); test: as above
[6] = target: human neuronal calcium channel α1B-1α2bβ1-3 (human); test: as above
[7] = target: human neuronal calcium channel subunits α1B-2β1-2 (human); test: as above
[8] = target: human neuronal calcium channel subunits α1B-2β1-3 (human); test: as above
[9] = target: human neuronal calcium channel α1B-2α2bβ1-2 (human); test: as above
[10] = target: human neuronal calcium channel subunits α1B-1β1-2 (human)
[11] = target: human neuronal calcium channel α1B-1α2bβ1-2 (human)
[12] = target: human neuronal calcium channel subunits α1B-1β1-3 (human)
[13] = target: human neuronal calcium channel α1B-1α2bβ1-3 (human)
[14] = target: human neuronal calcium channel subunits α1B-1α2b (human); remark: listed apart in the source
[15] = target: human neuronal calcium channel α1B-2α2bβ1-2 (human)

“ω-Aga-IVa (from UniProt P30288 1-48) (peptide)” gave a block of barium current (whole-cell patch clamp, HEK 293 cells) (% block at 10 nM) [1] of 73.
With “125I-ω-CgTx GVIA (from UniProt P01522 46-72) (peptide)” the Bmax (sites/cell) [2] was 2260 sites/cell, the Kd [2] was 0.0846 nM and the Bmax (sites/cell) [3] was 5760 sites/cell. It also gave a Kd [3] of 0.0179 nM, a Bmax (sites/cell) [4] of 45300 sites/cell and a Kd [4] of 0.0549 nM. For the same substance, the Bmax (sites/cell) [5] was 8730 sites/cell, the Kd [5] was 0.0179 nM and the Bmax (sites/cell) [6] was 91000 sites/cell. The Kd [6] was 0.0532 nM, the Bmax (sites/cell) [7] was 2130 sites/cell and the Kd [7] was 0.0164 nM. The Bmax (sites/cell) [8] was 2940 sites/cell, the Kd [8] was 0.0222 nM and the Bmax (sites/cell) [9] was 19400 sites/cell. For the same substance, the Kd [9] was 0.053 nM, the fold increase of surface binding against α1B-1 alone [10] was 8 fold and the fold binding sites per cell against α1B-2α2bβ1-2 [11] was 2.5 fold. It also gave a fold surface receptor density against α1B-1β1-2 [11] of 8 fold, a fold increase of surface binding against α1B-1 alone [12] of 10 fold and a fold binding capacity against α1B-1α2bβ1-2 [13] of 2 fold. The fold binding sites per cell against α1B-2α2bβ1-3 [13] was 2.5 fold, the fold surface receptor density against α1B-1β1-3 [13] was 10 fold and the fold increase of binding capacity against α1B-1 alone [14] was 3 fold. It also gave a fold surface receptor density against α1B-2β1-2 [15] of 9 fold.
